In publication doi:10.64898/2025.12.24.696337, “A Broadly Conserved Protective Epitope on the Lyme Disease Vaccine Antigen, OspA” (bioRxiv, 2025):
Where a chain is given by its changes, count along the chain named.

How the values were obtained:
[1] = target: T1, OspA serotype 3 (B. garinii PBr allele) on B. burgdorferi HB19-R1 reporter strain (Borreliella garinii PBr allele, in B. …, UniProt B8F1J0, strain); assay: flow cytometry on cells; live B. burgdorferi HB19-R1 reporter strains expressing OspA ST1-7 probed with 10 µg/ml mAb, then Alexa 647-labeled goat anti-human IgG; conditions: one partner purified
T1 construct: OspA serotype 3, allele of B. garinii PBr; also called OspAST3; OspA ST3; source: expressed from a reporter plasmid in B. burgdorferi HB19-R1, on live cells

[2] = target: T2, Recombinant OspAST1 (residues 18-273) from B. burgdorferi B31 (Borreliella burgdorferi B31, UniProt P0CL66); assay: BLI; Octet RED96e; mAb captured on AHC sensors, three-fold dilution series of OspA (21.58 nM to 0.089 nM); PBS, 0.1% BSA, 0.01% Tween20; global 1:1 model; conditions: both partners purified
T2 construct: Outer surface protein A (OspA) serotype 1, B. burgdorferi B31, residues 18 to 273; Used for the crystal structures; also called OspA (18-273); outer surface protein A serotype 1; not shown: His10, N-terminal, cleaved; SUMO, N-terminal, cleaved

[3] = target: T3, Native OspA serotype 3 on B. garinii PBr cells (Borreliella garinii PBr, UniProt B8F1J0, strain); assay: flow cytometry on cells; native Bbsl strains (primary isolates, ST1-7) probed with mAb; conditions: one partner purified
T3 construct: OspA serotype 3 of B. garinii PBr, native on the bacterial surface; also called native OspA ST3; source: endogenous, B. garinii PBr cells

[4] = target: T4, OspA serotype 4 (B. bavariensis PBi allele) on B. burgdorferi HB19-R1 reporter strain (Borreliella bavariensis PBi allele, in …, UniProt Q6LBF1, strain); assay: flow cytometry on cells; live B. burgdorferi HB19-R1 reporter strains expressing OspA ST1-7 probed with 10 µg/ml mAb, then Alexa 647-labeled goat anti-human IgG; conditions: one partner purified
T4 construct: OspA serotype 4, allele of B. bavariensis PBi; also called OspAST4; OspA ST4; source: expressed from a reporter plasmid in B. burgdorferi HB19-R1, on live cells

[5] = target: T5, OspA serotype 2 (B. afzelii PKo allele) on B. burgdorferi HB19-R1 reporter strain (Borreliella afzelii PKo allele, in B. …, UniProt P0A3N7); assay: as above; conditions: one partner purified
T5 construct: OspA serotype 2, allele of B. afzelii PKo; also called OspAST2; OspA ST2; source: expressed from a reporter plasmid in B. burgdorferi HB19-R1, on live cells

[6] = target: T6, Recombinant OspA serotype 1 (provided by Moderna) (Borreliella burgdorferi, strain not …, UniProt P0CL66); assay: microsphere immunoassay (MIA); recombinant OspA ST1-7 coupled to Magplex-C microspheres; serial dilutions of mAb in PBS, 2% BSA, pH 7.4, 1 h at room temperature; PE goat anti-human IgG Fc; conditions: both partners purified
T6 construct: OspA serotype 1; also called recombinant OspA ST1; ST 1; source: E. coli, purified; provided by Dr. Meredith Finn (Moderna)
T6 sequence (P0CL66 17-273): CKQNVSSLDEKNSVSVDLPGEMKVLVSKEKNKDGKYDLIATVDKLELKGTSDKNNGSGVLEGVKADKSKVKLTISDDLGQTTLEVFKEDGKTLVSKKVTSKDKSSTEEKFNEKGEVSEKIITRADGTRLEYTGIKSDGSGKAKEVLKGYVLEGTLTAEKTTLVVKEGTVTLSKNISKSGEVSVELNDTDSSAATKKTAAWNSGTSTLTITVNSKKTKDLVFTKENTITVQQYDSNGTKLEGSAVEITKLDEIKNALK

T5 sequence (P0A3N7 17-273): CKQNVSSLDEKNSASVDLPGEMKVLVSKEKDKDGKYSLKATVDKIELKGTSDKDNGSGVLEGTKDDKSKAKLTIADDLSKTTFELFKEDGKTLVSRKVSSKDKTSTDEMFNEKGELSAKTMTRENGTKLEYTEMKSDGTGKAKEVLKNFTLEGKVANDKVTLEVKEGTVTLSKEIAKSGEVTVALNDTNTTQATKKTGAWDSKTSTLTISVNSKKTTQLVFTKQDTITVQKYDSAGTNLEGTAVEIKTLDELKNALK

B1: 221-11, recombinant human monoclonal IgG1 (antibody, V domains shown)
VH: EVQLVQSGAEVKKPGESLKISCQSSGYRFTIYWIGWVRQMPGKGLEWMGIIWPGDSDTRYSPSFQGQVTISADKSISTAYLQWSSLKASDTAMYYCVRGIGRYSNWFLDYWGQGTLVTVSS
VL: AIQLTQSPSSLSASVGDRVTITCRASQGFSSALAWYQQKPGKAPKLLIYDASSLESGVPSRFSGSGSGTDFTLTISSLQPEDFATYYCQQFNSYPLTFGGGTKVEIK
notes: rest human IgG1 constant region; IgG1; VH germline HV5-51, VL germline KV1-13; also called Class II Bin 1 mAb; source: Expi293, transiently transfected with VH and VL plasmids, purified (Protein A)
In the case of B1, the binding result [1] is reported as “binds” and the Kd [2] is reported as 0.35 nM.

B2: 227-1, recombinant human monoclonal IgG1 (antibody, V domains shown)
VH: EVQLVQSGAEVKMPGESLKISCEVSGYSFTSYWIGWVRQMPGKGLEWMGIIYPGDSDTRYSPSFQGQVTISADKSISTAYLQWSSLKASDTAMYYCTRSISRSGPGFSLSWFFDYWGQGTLVTVSS
VL: B1 VL with F29I, S31N, S56R, S67F, T85I, S93G, Y94F, L96N, G100Q, K103R
notes: rest human IgG1 constant region; IgG1; VH germline HV5-51, VL germline KV1-13; also called Class III Bin 1 mAb; source: Expi293, transiently transfected with VH and VL plasmids, purified (Protein A)
B2 showed a Kd [2] of 1.7 nM.

B3: 857-2, recombinant human monoclonal IgG1 (antibody, V domains shown)
VH: EVQLVQSGEEVKKPGESLKISCKGSGYKFSSYWIGWVRQMPGKGLEWMGIIFPGDSDKRYSPSFQGQVTISADKSISTVYLQWSSLKASDTAMYYCARHITTHTYRGFFDFWGQGTLVTVSS
VL: AIQLTQSPSSLSASVGDRVTITCRASQDISSALAWYQQKPGKAPKLLIYDVSSLESGVPSRFSGSGSGTDFTLTISSLQPEDFATYYCQQFNGYPHRLTFGGGTKVEIK
notes: rest human IgG1 constant region; IgG1; VH germline HV5-51, VL germline KV1-13; also called mAb 857-2; Class I Bin 1 mAb; source: Expi293, transiently transfected with VH and VL plasmids, purified (Protein A)
With B3 the binding result [3] was “binds”, the MFI [4] was > 4000 and the MFI [5] was > 4000. The MFI [1] was > 4000 and the Kd [2] was 0.3 nM.

B4: 221-5, recombinant human monoclonal IgG1 (antibody, V domains shown)
VH: EVQLVQSGAEVKKPGESLKISCKGSGYSFTSYWIGWVRQMPGKGLEWMGIIYPGDSDTRYSPSFQGQVTISADKSISTAYLQWSSLKASDTAMYYCARHLGIDYFFGMDVWGQGTTVTVSS
VL: EIVLTQSPATLSLSPGERATLSCRASQSVSSYLAWYQQKPGQAPRLLIYDASTRDTGIPARFSGSGSGTDFTLTISSLEPEDFAVYYCQHHSNWYTFGQGTKLEIK
notes: rest human IgG1 constant region; IgG1; VH unmutated from germline HV5-51, VL derived from KV3-11; also called Class I Bin 1 mAb; source: Expi293, transiently transfected with VH and VL plasmids, purified (Protein A)
For B4, the MFI [4] was > 4000, the MFI [5] was > 4000 and the MFI [1] was > 4000. The binding result [6] was “binds” and the Kd [2] was 0.52 nM.
